Laboratory results as given in patent US11845793B2, “Anti-ROR1 antibodies” (NBE-THERAPEUTICS AG, dated 2023).

Columns and labels:
[1] = target: T1, StrepII-tagged ROR1-extracellular domain (human, UniProt Q01973); experiment: SPR (Biacore T200), purified mAb captured by anti-human Fc, ROR1-strep as analyte, 1:1 model
[2] = target: T1, StrepII-tagged ROR1-extracellular domain; experiment: SPR (Biacore T200), IgG from HEK293T supernatant captured by anti-human Fc, ROR1-strep as analyte, 1:1 model
Protocol: For initial determination of huR12 clone affinities and parental R12 using transient HEK293T supernatants, IgG expression vectors were transiently transfected into 293T cells and IgG titers in supernatants were quantified by ELISA. For SPR, supernatants were diluted to 1 µg/ml IgG with running buffer (HBS-EP+pH 7.4 (10 mM HEPES, 150 mM NaCl, 3 mM EDTA, 0.05% Tween® 20)) and captured for 200s with a flow of 30 µl/min. ROR1-strep was diluted in running buffer using 2-fold serial dilutions ranging from 20 nM to 2.5 nM. Association was measured at a flow of 30 µl/min for 120s, and dissociation was followed for 1000s. Capture levels ranged from 26.9 RU to 54.1 RU.

T1 sequence (Q01973 other isoform, or with tags, fused parts or gaps): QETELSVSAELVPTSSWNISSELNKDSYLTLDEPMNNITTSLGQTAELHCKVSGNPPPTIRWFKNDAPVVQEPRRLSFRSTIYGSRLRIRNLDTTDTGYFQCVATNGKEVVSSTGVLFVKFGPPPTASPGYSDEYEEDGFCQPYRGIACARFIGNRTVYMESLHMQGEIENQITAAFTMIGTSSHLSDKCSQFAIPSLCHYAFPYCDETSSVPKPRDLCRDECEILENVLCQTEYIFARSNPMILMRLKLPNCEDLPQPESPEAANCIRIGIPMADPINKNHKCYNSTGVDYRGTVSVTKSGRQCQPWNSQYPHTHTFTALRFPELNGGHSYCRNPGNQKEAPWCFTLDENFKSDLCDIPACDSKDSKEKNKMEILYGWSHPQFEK

Row | Binder | Kd [1] [nM] | koff [1] [s⁻¹] | kon [1] [M⁻¹ s⁻¹] | Kd [2] [nM] | koff [2] [s⁻¹] | kon [2] [M⁻¹ s⁻¹]
1 | hu2A2-D23, humanized from 2A2 (antibody, V domains shown) VH: QVQLVESGAEVKKPGASVKLSCKASGYTFSDYEMHWVRQAPGQRLEWMGAIDPETGGTAYNQKFKGRVTITVDKSASTAYMELSSLRSEDTAVYYCTGYYDYDSFTYWGPGTTVTVSS VL: DIVMTQSPSTLSASVGDRVTITCKASQNVDAAVAWYQQKPGTAPKLLIYSASNRYTGVPSRFSGSGSGTEFTLTISSLQSEDLADYFCQQYDIYPYTFGQGTKLEIK | 8 | 0.0138 | 1.72e+06 | – | – | –
2 | hu2A2-D16, humanized from 2A2 (antibody, V domains shown) VH: EVQLVESGAEVKKPGASVKVSCKASGYTFSDYEMHWVRQAPGQGLEWVGAIDPETGGTAYNQKFKGRVTMTRDTSTSTVYMELSSLRSEDTAVYYCTGYYDYDSFTYWGQGTLVTVSS VL: DIQMTQSPSSLSASVGDRVTITCKASQNVDAAVAWYQQKPGKAPKLLIYSASNRYTGIPTRFSGSGSGTDFTLTISSLQSEDLADYFCQQYDIYPYTFGQGTKVEIK | 10.9 | 0.0189 | 1.73e+06 | – | – | –
3 | hu2A2b-Q11, humanized from 2A2 (antibody, V domains shown) VH: EVQLVQSGAEVKKPGASVKVSCKASGYTFSDYEMHWVRQAPGQGLEWLGAIDPETGGTAYNQKFKGRVTMTGDTSISTAYMELSRLTSDDTAVYYCTGYYDYDSFTYWGQGTLVSVSS VL: DIQMTQSPSSLSTSVGDRVTITCKASQNVDAAVAWYQQKPGKAPKLLIYSASNRYTGVASRFSGSGSGTDFTFTISSLQSEDLADYFCQQYDIYPYTFGQGTKLEIK | 9.9 | 0.0173 | 1.75e+06 | – | – | –
4 | chimeric mAb R11 (antibody, V domains shown) VH: QSVKESEGDLVTPAGNLTLTCTASGSDINDYPISWVRQAPGKGLEWIGFINSGGSTWYASWVKGRFTISRTSTTVDLKMTSLTTDDTATYFCARGYSTYYGDFNIWGPGTLVTISS VL: ELVMTQTPSSTSGAVGGTVTINCQASQSIDSNLAWFQQKPGQPPTLLIYRASNLASGVPSRFSGSRSGTEYTLTISGVQREDAATYYCLGGVGNVSYRTSFGGGTEVVVK | 3.4 | 0.00328 | 957000 | – | – | –
5 | Chimeric mAb R12 (antibody, V domains shown) VH: QEQLVESGGRLVTPGGSLTLSCKASGFDFSAYYMSWVRQAPGKGLEWIATIYPSSGKTYYATWVNGRFTISSDNAQNTVDLQMNSLTAADRATYFCARDSYADDGALFNIWGPGTLVTISS VL: ELVLTQSPSVSAALGSPAKITCTLSSAHKTDTIDWYQQLQGEAPRYLMQVQSDGSYTKRPGVPDRFSGSSSGADRYLIIPSVQADDEADYYCGADYIGGYVFGGGTQLTVT | – | – | – | 1.03 | 0.000361 | 349000
6 | huR12_7, humanized from R12 (antibody, V domains shown) VH: QVQLVESGGELVQPGGSLTLSCKASGFDFSAYYMSWVRQAPGKGLEWIATIYPSSGKTYYAASVQGRFTISADNAKNTVSLQMNSLTAADTATYFCARDSYADDGALFNIWGKGTLVTVSS VL: QLVLTQSPSVSAALGSSAKITCTLSSAHKTDTIDWYQQLAGQAPRYLMYVQSDGSYEKRSGVPDRFSGSSSGADRYLIISSVQADDEADYYCGADYIGGYVFGGGTQLTVLG | – | – | – | 0.11 | 0.000116 | 1.05e+06
7 | huR12_4, humanized from R12 (antibody, V domains shown) VH: QVQLVESGGELVQPGGSLTLSCKASGFDFSAYYMSWVRQAPGKGLEWIATIYPSSGKTYYAASVQGRFTISADNAKNTVYLQMNSLTAADTATYFCARDSYADDGALFNIWGKGTLVTVSS VL: QLVLTQSPSVSAALGSSAKITCTLSSAHKTDTIDWYQQLAGQAPRYLMYVQSDGSYEKRSGVPDRFSGSASGADRYLAISRVQADDEADYYCGADYIGGYVFGGGTQLTVLG | – | – | – | 0.091 | 9.93e-05 | 1.09e+06
8 | chimeric mAb 2A2 (antibody, V domains shown) VH: QVQLQQSGAELVRPGASVTLSCKASGYTFSDYEMHWVIQTPVHGLEWIGAIDPETGGTAYNQKFKGKAILTADKSSSTAYMELRSLTSEDSAVYYCTGYYDYDSFTYWGQGTLVTVSA VL: DIVMTQSQKIMSTTVGDRVSITCKASQNVDAAVAWYQQKPGQSPKLLIYSASNRYTGVPDRFTGSGSGTDFTLTISNMQSEDLADYFCQQYDIYPYTFGGGTKLEIK | 5.7 | 0.00968 | 1.69e+06 | – | – | –

Other lines, results leading:

Row | Kd [1] [nM] | koff [1] [s⁻¹] | kon [1] [M⁻¹ s⁻¹] | Kd [2] [nM] | koff [2] [s⁻¹] | kon [2] [M⁻¹ s⁻¹] | Binder
9 | 6.1 | 0.00498 | 821000 | – | – | – | rbQ11, humanized from R11 (antibody, V domains shown) VH: EVQLVQSGGGLVQPGGSLRLSCAASGSDINDYPISWVRQAPGKGLEWVSFINSGGSTWYASWVKGRFTISRDNAKNSLYLQMNSLRDDDTATYFCARGYSTYYGDFNIWGQGTLVTVSS VL: DIVMTQSPSSLSASVGDRVTITCQASQSIDSNLAWFQQKPGKAPKSLIYRASNLASGVPSKFSGSGSGTDFTLTISSLQREDAATYYCLGGVGNVSYRTSFGGGTKVEIK
10 | 9 | 0.0071 | 785000 | – | – | – | rbD4, humanized from R11 (antibody, V domains shown) VH: EVQLVESGGGLVQPGRSLRLSCTASGSDINDYPISWFRQAPGKGLEWVGFINSGGSTWYASWVKGRFTISRDDSKSIAYLQMNSLKTDDTATYFCARGYSTYYGDFNIWGQGTTVTVSS VL: DVVMTQSPSSLSASVGDRVTITCQASQSIDSNLAWFQQKPGKAPNLLIYRASNLASGVPSRFSGSGSGTEFTLTISSLQREDAATYYCLGGVGNVSYRTSFGQGTKVEIK
11 | 14.2 | 0.0104 | 733000 | – | – | – | rbQ12, humanized from R11 (antibody, V domains shown) VH: EVQLVESGGGLVQPGGSLRLSCAASGSDINDYPISWVRQAPGKGLEWVSFINSGGSTWYASWVKGRFTISRDNAKNSLYLQMNSLRADDTATYFCARGYSTYYGDFNIWGQGTMVTVSS VL: EIVMTQSPSSLSASVGDRVTITCQASQSIDSNLAWFQQKPGKAPNLLIYRASNLASGVPSRFSGSGSGTEFTLTISSLQREDAATYYCLGGVGNVSYRTSFGQGTKVEIK
12 | – | – | – | 0.084 | 9.65e-05 | 1.15e+06 | huR12_11, humanized from R12 (antibody, V domains shown) VH: QVQLVESGGALVQPGGSLTLSCKASGFDFSAYYMSWVRQAPGKGLEWIATIYPSSGKTYYAASVQGRFTISADNAKNTVYLQMNSLTAADTATYFCARDSYADDGALFNIWGQGTLVTVSS VL: QLVLTQSPSVSAALGSSAKITCTLSSAHKTDTIDWYQQLAGQAPRYLMYVQSDGSYEKRSGVPDRFSGSSSGADRYLIISSVQADDEADYYCGADYIGGYVFGGGTQLTVG
13 | – | – | – | 0.092 | 8.79e-05 | 960000 | huR12_16, humanized from R12 (antibody, V domains shown) VH: QVQLVESGGELVTPGGSLTLSCKASGFDFSAYYMSWVRQAPGKGLEWIASIYPSSGKTYYAAAVQGRFTISADNAKNTVYLQMNSLTAADTATYFCARDSYADDGALFNIWGQGTLVTVSS VL: QLVLTQSPSVSAALGSSAKITCTLSSAHKTDTIDWYQQLAGQAPRYLMYVQSDGSYEKRSGVPDRFSGSSSGADRYLIISSVQADDEADYYCGADYIGGYVFGGGTQLTVG
